We go through two molecules from patent US20070036789A1 (NATIONAL CANCER CENTER, published 2007).

Assay [1] deals with T1, phage containing the peptide of SEQ ID NO: 32.
T1 construct: The phage coat fusion is not described
T1 peptide: HHPHFKPVSNSR
In words: phage peptide library panned on the coated Fab, clones selected by EIA. On the procedure:
(§1) A 96-well plate (costar No. 3690) was coated with anti-HGF H61 Fab or anti-HGF H68 Fab dissolved in 25 μl of TBS solution at a concentration of 10 μg/ml per well. PHD peptide library (phage display of combinatorial peptide library) (new England Biolob.) was added to the well plate, and then, the well plate was kept for 2 hrs at room temperature. The well plate was washed with 0.5% (v/v) Tween 20 in PBS and eluted with 0.1 M HCl-glycine (pH 2.2). The washing steps were increased from 5 times in the first round to 10 times in the second round and 15 times in the subsequent rounds. Typically seven rounds of panning were carried out. After the last round of panning, the phage clones containing anti-HGF H61 Fab or anti-HGF H68 Fab were selected by EIA using anti-HGF H61 Fab or anti-HGF H68 Fab-coated ELISA plate and horseradish peroxidase-conjugated anti-M13 phage goat monoclonal antibody (Roche). The selected clones were subjected to nucleotide sequencing and the amino acid sequences were determined from the analyzed nucleotide sequences.
(§2) Nucleotide sequencing was performed according to the dye-labeled primer sequencing method (Chung et al., supra) using a sequencing primer of SEQ ID NO: 31. As a result, peptides encoding anti-HGF H61 and H68 Fabs deduced from the analyzed nucleotide sequences had the amino acid sequences of SEQ ID NOs: 32 and 33, respectively.

The target in the next assay is T2, c-Met (UniProt P08581 25-932, limits assumed).
T2 construct: also called HGF receptor
Put plainly: SPR, c-Met on CM5 chip, Fab injected alone. On the procedure:
To ascertain the fact that anti-HGF H68 Fab can inhibit the binding of HGF to c-Met in real time, c-Met was coupled to CM5 sensor chip through an amine coupling method. Thereafter, HGF alone was injected at a concentration of 50 nM, and premixed with anti-HGF H68 Fab of 5 different concentrations (50 nM, 250 nM, 500 nM, 1 μM and 1.5 μM) and soluble c-Met of 5 different concentrations (50 nM, 100 nM, 200 nM, 400 nM, 600 nM), respectively. Binding interaction was allowed to proceed in PBS buffer containing 0.005% surfactant P20 at a flow rate of 30 μl/min at 25° C. The surface was regenerated with 1 M NaCl/50 mM NaOH.
There was no binding of HGF in case when anti-HGF H68 Fab alone was injected.
In general terms: SPR reads the build-up and loss of mass on a sensor chip optically.

Assay [2] addresses T3, phage containing the peptide of SEQ ID NO: 33.
T3 construct: The phage coat fusion is not described
T3 peptide: KSLSRHDHIHHH
Put plainly: phage peptide library panned on the coated Fab, clones selected by EIA. As to the method:
as §1, §2

T2 sequence (P08581 25-932 limits assumed): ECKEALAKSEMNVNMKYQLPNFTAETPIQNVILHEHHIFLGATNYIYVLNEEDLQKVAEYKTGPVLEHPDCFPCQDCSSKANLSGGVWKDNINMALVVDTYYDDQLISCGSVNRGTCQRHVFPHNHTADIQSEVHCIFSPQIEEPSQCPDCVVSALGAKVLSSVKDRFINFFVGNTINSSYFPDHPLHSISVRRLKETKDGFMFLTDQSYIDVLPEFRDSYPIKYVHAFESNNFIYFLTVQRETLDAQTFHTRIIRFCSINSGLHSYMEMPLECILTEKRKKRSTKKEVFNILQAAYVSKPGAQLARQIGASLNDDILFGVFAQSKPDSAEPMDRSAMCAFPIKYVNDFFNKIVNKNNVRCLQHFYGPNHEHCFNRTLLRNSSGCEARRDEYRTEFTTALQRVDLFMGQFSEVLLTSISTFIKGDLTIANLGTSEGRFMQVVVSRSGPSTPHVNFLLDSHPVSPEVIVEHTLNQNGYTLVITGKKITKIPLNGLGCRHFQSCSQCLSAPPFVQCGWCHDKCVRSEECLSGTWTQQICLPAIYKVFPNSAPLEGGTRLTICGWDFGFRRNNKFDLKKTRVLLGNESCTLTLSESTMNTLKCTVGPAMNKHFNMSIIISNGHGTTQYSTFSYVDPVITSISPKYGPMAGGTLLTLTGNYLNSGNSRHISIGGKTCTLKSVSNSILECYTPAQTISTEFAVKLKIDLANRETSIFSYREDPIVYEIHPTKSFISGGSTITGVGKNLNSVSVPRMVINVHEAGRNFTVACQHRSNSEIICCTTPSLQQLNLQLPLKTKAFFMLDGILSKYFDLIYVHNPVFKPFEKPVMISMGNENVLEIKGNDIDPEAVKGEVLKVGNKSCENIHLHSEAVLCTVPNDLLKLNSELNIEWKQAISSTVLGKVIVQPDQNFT

B1: anti-HGF H61 Fab (Fab, V domains shown)
VH: QEQLMESGGRLVNPGESLTLTCKASGFTFSSYYMSWVRQAPGKGLEWIGYIGTSSGTTYYANSVKGRFTISSDNAQNTVFLRMTSLTDSDTATYFCARGLGRINLWGPGTLVTVSS
VL: ELVLTQTPSSMSAAVGGTVTINCQASQSVSNYLAWYQQKPGQPPKLLIYRASTLASGVPSRFSGSGSGTEFTLTISGMKAEDAATYYCQSGYYSAGATFGGGTNVEIKR
notes: Rabbit/human chimeric Fab: rabbit VH and VL joined to human CH1 and Ckappa from pComb3X; purified through its HA tag; also called clone 61; clone 61 Fab
For B1, the binding result in assay [1] is “binds”.

B2: anti-HGF H68 Fab (Fab, V domains shown)
VH: QQQLVESGGRLVNPGESLTLTCKASGFTFSTYYMSWVRQAPGKGLEWIGYIGTSSGTTYYANSVKGRFTISSDNAQNTVFLQMTSLTDSDTATYFCARGLGRINLWGPGTLVTVSS
VL: ELDLTQTPSSVSAAVGGTVTINCQASQSVSNLLAWYQQKPGQPPKLLIYGASNLESGVPSRFRGSGSGTEFTLTISGMKAEDAATYYCQSGYYSAGATFGAGTNVEIKR
notes: Rabbit/human chimeric Fab: rabbit VH and VL joined to human CH1 and Ckappa from pComb3X; purified through its HA tag; also called clone 68; clone 68 antibody
As to B2, the binding result with c-Met is on record as “no binding”; in assay [1] it was “binds”; in assay [2], “binds”.
